Entries after “also recorded” stand apart in the source; their conditions may differ.
Tests used:
ZIKV = ZIKV infection of HaCaT cells; type: cell-based, Zika Virus
Description: FIGS. 6B and C relate to HaCaT cells that were serum starved overnight and then infected with the ZIKV strains Uganda (strain 976) (MOI=0.1) or French-Polynesia (PF13/251013-18) (MOI˜20). 2h after infection cells were treated with 20 ng/ml FGF7 or left untreated (CTRL). Culture medium+/−FGF7 was changed every day. 48h post infection cells were analyzed by immunofluorescence using a Flavivirus group-specific antibody (4G2) detecting the ZIKV envelope protein (ZIKV-Env) (B). Magnification bar in (B): 40 μm. Alternatively, cells were analyzed for ZIKV mRNA levels by qRT-PCR relative to RPL27 (C). Mean expression levels in vehicle-treated cells were set to 1. Representative out of four independent experiments are shown.
HaCaT cells were seeded on a 4-well tissue chamber on a PCA slide (5×10^4/chamber). After overnight serum starvation, they were infected with the ZIKV strains Uganda (strain 976) (MOI=0.1) or French-Polynesia (PF13/251013-18) (MOI˜20). 2h post infection cells were treated with FGF7 or left untreated. Culture media+/−FGF7 was changed every day. 48 hours post-infection cells were either analyzed by immunofluorescence using a Flavivirus group-specific antibody (4G2) detecting the ZIKV envelope protein (ZIKV-Env) or harvested and analyzed for ZIKV expression levels by qRT-PCR relative to human RPL27 (ZIKV primers: 5′-[…] -3′, SEQ ID NO: 49; 5′-[…] -3′, SEQ ID NO: 50). To investigate the effect of ZIKV and FGF7 on ISG expression, HaCaT cells were seeded in 6-well plates. After overnight serum starvation, confluent cells were infected with the ZIKV strain French-Polynesia (PF13/251013-18) (MOI˜20) in the presence or absence of FGF7 (20 ng/ml). 72 h post-infection cells were harvested and analyzed for OAS1 and MxA by qRT-PCR relative to RPL27.

HSV-1 = experiment: Ex vivo HSV-1 infection of epidermal sheets from mouse tail skin; type: cell-based, Herpes Simplex Virus type 1; details: HSV-1 MOI=2, 48 h, FGF7 15 ng/ml, NSC23766 50 μM, AZD4547 1 μM
Description: FIG. 7D pertains to epidermal sheets from tail skin of wild-type mice that were infected ex vivo with HSV-1 (MOI=2) in the presence or absence of IFNα, FGF7, NSC23766 or AZD4547 and analyzed by immunofluorescence staining 48 h after infection with antibodies against Glyc-D (red). […] Cell nuclei were stained using DAPI (blue). Magnification bar: 800 μm. Values obtained for HSV-1 infected cells in (A-C) without additional treatment were set to 1.
HSV-1 infection of epidermal sheets from mouse tails was performed as previously described (Rahn et al., J. Invest. Dermatol 135, 3009-3016, 2015). Briefly, skin was removed from the tails of 3 month-old mice, followed by separation of the epidermis from the dermis by dispase treatment (5 mg/ml). After floating the epidermal sheets on serum-free DMEM overnight, they were incubated with HSV-1 alone (MOI=2) or in combination with FGF7 (15 ng/ml), IFNα (1000 U/ml) and/or NSC23766 (50 μM) or AZD4547 (1 μM) for 48 h and subsequently fixed in 4% PFA for 1 h at RT. The sheets were then incubated in blocking solution (PBS 2% BSA/1% fish skin gelatin/0.05% Triton Tx-100) for 2 h at RT and stained overnight at 4° C. with an antibody against Glyc-D diluted in blocking solution. […]

LCMV = type: cell-based, Lymphocytic Choriomeningitis Virus; details: HaCaT, LCMV MOI 0.05 or 0.2
[1] = system: interferon-stimulated response element (ISRE); experiment: ISRE luciferase reporter assay in immortalized mouse keratinocytes; type: cell-based; details: FGF7 10 ng/ml and/or IFNα 1000 U/ml, 12 h
Description: FIG. 3C pertains to immortalized mouse keratinocytes that were co-transfected with TK-Renilla and pGL4.45[luc2P/ISRE/Hygro] plasmids, starved in serum-free medium and then treated with FGF7 (10 ng/ml) and/or IFNα (1000 U/ml) for 12 h. Firefly luciferase activity was determined in cell lysates and normalized to Renilla luciferase activity (transfection control). The mean value in vehicle-treated cells (CTRL) was set to 1.
Mouse keratinocytes and HEK 293 cells were transfected with the expression vector for TK-Renilla and the expression vector pGL4.45[luc2P/ISRE/Hygro] (Promega). The latter contains five copies of an ISRE that drives expression of the luciferase reporter gene. Cells were seeded into 12-well plates, cultured for 24 h, and transfected using Lipofectamine 2000 […]. They were then starved in serum-free medium, treated with FGF7 (10 ng/ml) and/or IFNα (1000 U/ml) for 12 h, lysed and analyzed using a dual-luciferase assay system (Promega) as described by the manufacturer. Relative light units were measured in a GloMax 96 microplate luminometer with dual injectors (Promega).

ISGs = details: cultured lung airway epithelial cells, Prince et al.; cited from earlier work

B1: FGF7: recombinant human FGF7, the classical ligand of FGFR2b (protein, UniProt P21781 32-194, looked up)
Fibroblast growth factor 7: CNDMTPEQMATNVNCSSPERHTRSYDYMEGGDIRVRRLFCRTQWYLRIDKRGKVKGTQEMKNNYNIMEIRTVAVGIVAIKGVESEFYLAMNKEGKLYAKKECNEDCNFKELILENHYNTYASAKWTHNGGEMFVALNQKGIPVRGKKTKKEQKTAHFLPMAIT
- ZIKV gene expression (qRT-PCR relative to RPL27) (ZIKV; FGF7 20 ng/ml added 2 h after infection): efficient when added 2 h after the infection
- number of cells expressing the ZIKV envelope protein (ZIKV; FGF7 20 ng/ml, 48 h post infection): increased the number of cells expressing the ZIKV envelope protein
- increase of MxA and OAS1 expression during ZIKV infection (ZIKV; ZIKV French-Polynesia, FGF7 20 ng/ml, 72 h): strongly suppressed
- HSV-1 infection / viral dissemination (Glyc-D staining) (HSV-1): stronger; also recorded: A strong increase in infected cells
- expression levels of LCMV nucleoprotein (NP) / viral replication (LCMV): strongly increased
- ISRE-driven luciferase activity [1]: counteracted
- expression of ISGs (ISGs): suppresses the expression of a limited number of ISGs
